Experimental data reported in PMC12461897 (mAbs, 2025).
Changes are numbered by the printed parent chain.

B1: MUR35 Fab (anti-C18-MHC TCR-mimic antibody clone MUR35) (Fab, V domains shown)
VH: EVQLQQSGPELVKPGASVKISCKASGYTFTDHFMNWVRQSHGKSLEWIGDINPNNGGTSYNQKFKGKATLTVDKSSSTAFMEVRSLTSDDSAVYYCARRGYYGSFDYWGQGTTLTVSS
VL: EIVMTQSPATLSLSPGERATLSCRASQGVSSSYFSWYQQTPGQAPRLLISGASTRATGIPARFSGSGSGTDFTLTISSLQPEDFAVYYCQQDYNLPYTFGQGTKLEIK
B2: MUR14 Fab (anti-C18-MHC antibody clone MUR14) (Fab, V domains shown)
VH: EVQLQQSGPELVKPGASVKISCKASGYTFTDYFMNWVKQSHGKSLEWIGDINPNNGGTSYNQKFKGKATLTVDKSSSTAYMELRSLTSEDSAVYYCARGLYDGYYVGFAYWGQGTLVTVSA
VL: B1 VL with G28S, F34L, T40K, S50Y, I59L, Q90H

Biological target: C18-V peptide presented by HLA-A*02:01 on peptide-pulsed T2 cells (Homo sapiens HLA-A*02:01 and B2M (T2 …))
Test: flow cytometry on cells

Row | Binder | binding result
1 | B1 | binds
2 | B2 | binds
